Where two headings read alike, the source gives them in different places.

Holding throughout (assay type): cell-based, human
Assay [1] relates to oral (buccal) mucosa cells (TR146). Put plainly: Sub(G0/G1) cell population (cell cycle) against radiation induced damage. Conditions: for % Decrease in Apoptotic cells (with respect to control): Sub G0/G1. As to the method:
To determine the effect of test item on cell cycle, oral buccal mucosal cells (TR146) were incubated overnight in 5% CO2 incubator at 37° C. for 24 h. […] After 24 h of treatment, cells were exposed to chemotherapy (5-FU 10 mM) for 24 h or radiotherapy (Gamma radiation (3.5 kGy) using Cobalt 60) for 2 h.
After incubation, cells were harvested by trypsinization and processed for Cell cycle assay. Accordingly, cells were harvested into prelabeled centrifuge tubes and centrifuged at 450 g for 5 min at room temperature (RT, low brake). The supernatants were removed carefully and discarded. 1 ml of 1× phosphate buffer saline (PBS) was added to the pellet and resuspended gently to make homogenous suspension. Cells were centrifuged at 450 g for 5 min, RT (low brake). The supernatant was carefully removed leaving behind approx. 100 μl of PBS. Cells were resuspended gently yet thoroughly in residual PBS. Ice-cold 70% ethanol (100 μl) was added drop-wise into cells in each tube while vortexing at low speed (fixation step). Cells stored at 4° C. for 24 h were centrifuged at 450 g for 5 min, RT (low brake). The supernatant was carefully removed without touching the pellet and discarded. 1 ml of 1×PBS was added into pellet and resuspended gently. Cells were incubated for 1 minute at RT. Cells were centrifuged at 450 g for 5 min, RT (low brake). The supernatant was removed carefully without touching the pellet, leaving behind approx. 20-50 μl of PBS. 200 μl of cell cycle reagent was added into each tube. Cells were resuspended gently and mixed. Cells were incubated for 30 min at RT in the dark. The stained samples were transferred into 96-well plates and acquired on flow cytometer (Guava technologies). Percentage of cells in Sub (G0/G1) phase were determined based on the concept that cell cycle reagent contains PI stain, which stains DNA of cells in different phases of cell cycle; Sub (G0/G1), G1, S, G2 and M. Cells in Sub (G0/G1) phase correspond to apoptotic cells. Percent inhibition in apoptotic cells is determined by the formula:
=[(% Sub(G0/G1) cells in 5-FU/radiation alone)−(% Sub(G0/G1) cells in TI+5-FU/radiation)/% Sub(G0/G1) cells in 5-FU/radiation alone]*100

Assay [2] has the same test system. How it is done: The protective effect of the recombinant lectin on survival of TR146 cells against 5-FU induced damage was determined using following calculations:
The viability of cells was determined as: % Cell viability=(100−% Cytotoxicity); • where, the percentage cytotoxicity corresponding to each treatment was calculated as: % Cytotoxicity=[(R−X)/R]*100, wherein X=Absorbance of cells treated with 5-FU or radiation damage/TI+5-FU, R=Absorbance of Control cells (Untreated) and Percentage protection was calculated as:
{(Absorbance of TI+5-FU or radiation)−(Absorbance of 5-FU or radiation alone)/(Absorbance of Untreated)−(Absorbance of 5-FU alone)}*100

For assay [3] the test system is unchanged. Put plainly: Annexin positive cell population against radiation damage. The conditions noted are these: for % Apoptotic cells: Annexin positive. How it is done: (§1) Oral buccal mucosal cells (TR146) were incubated overnight in 5% CO2 incubator at 37° C. for 24 h. […] After 24 h of treatment, cells were exposed to damage (5-FU 5 mM) for 1.25 h for chemotherapy induced inflammation and exposed to gamma radiation (3.5 kGy) using Cobalt 60 for radiation induced inflammation. After the exposure, the anti-apoptotic effect of SEQ ID NO 2 was determined by restoration of mitochondrial membrane depolarization by JC-1 staining and reduction in apoptotic cell populations (Annexin positive and subG0/G1 cells in cell cycle analysis).
To determine the reduction in apoptotic cell populations using annexin-v staining cells were gently harvested into pre-labeled sterile centrifuge tubes and centrifuged at 300×g for 5-7 min. Supernatant were discarded and the pellet was resuspended in 200 μl of fresh culture medium. 100 μl of cell suspension was transferred into pre-labeled sterile centrifuge tubes. 100 μl of Annexin-V reagent was added to each tube and incubated for 30 min at RT in dark. Cells stained for Annexin-V were then transferred into 96-well plates and acquired on flow cytometer (Guava technologies). Percentage of Annexin-V positive cells was calculated as follows:
={[% Annexin positive cells in 5-FU or radiation alone]−[% Annexin positive cells in (TI+5-FU) or (TI+radiation)]/% Annexin positive cells in 5-FU or radiation alone}*100

Assay [4] shares this test system. Kind of assay: Restoration of mitochondrial membrane potential (JC-1) against radiation induced damage. Conditions: for MMP: red/green JC-1 fluorescence ratio. As to the method:
as §1
After incubation, the supernatants were discarded and 100 μl of JC1-dye solution (prepared by diluting 1 mM DMSO stock into 10 μM in 1×PBS) was added to each well. The cells were then incubated with the dye in CO2 incubator at 37° C. for 15 min, after which the supernatant was removed, and the cells were washed twice with 1×PBS. 100 μl of 1×PBS was finally added to each well. Red fluorescence (excitation 550 nm, emission 600 nm) and green fluorescence (excitation 485 nm, emission 535 nm) were measured using Biotek Synergy HT plate reader. The mitochondrial membrane potential (Δψm) was calculated as the ratio of intensity of red fluorescence to intensity of green fluorescence.
The percentage increase/restoration in mitochondrial membrane potential (MMP) was calculated as: % Increase=[(R−X)/R]*100 • Where, X=Δψm corresponding to TI+5-FU treated cells or TI+radiation treated cells; R=Δψm corresponding to control cells (FU damaged or Radiation damaged alone)

Setting [5] is: 100 ng/ml + Radiation (3.5 kGy).
The mark [6] stands for this setting: 200 ng/ml + Radiation (3.5 kGy).

B1: EGF: positive control (PC-1 in Tables 4, 6, 8) in the radiation damage tests (protein, UniProt P01133 23-1207, looked up)
Pro-epidermal growth factor: PQHWSCPEGTLAGNGNSTCVGPAPFLIFSHGNSIFRIDTEGTNYEQLVVDAGVSVIMDFHYNEKRIYWVDLERQLLQRVFLNGSRQERVCNIEKNVSGMAINWINEEVIWSNQQEGIITVTDMKGNNSHILLSALKYPANVAVDPVERFIFWSSEVAGSLYRADLDGVGVKALLETSEKITAVSLDVLDKRLFWIQYNREGSNSLICSCDYDGGSVHISKHPTQHNLFAMSLFGDRIFYSTWKMKTIWIANKHTGKDMVRINLHSSFVPLGELKVVHPLAQPKAEDDTWEPEQKLCKLRKGNCSSTVCGQDLQSHLCMCAEGYALSRDRKYCEDVNECAFWNHGCTLGCKNTPGSYYCTCPVGFVLLPDGKRCHQLVSCPRNVSECSHDCVLTSEGPLCFCPEGSVLERDGKTCSGCSSPDNGGCSQLCVPLSPVSWECDCFPGYDLQLDEKSCAASGPQPFLLFANSQDIRHMHFDGTDYGTLLSQQMGMVYALDHDPVENKIYFAHTALKWIERANMDGSQRERLIEEGVDVPEGLAVDWIGRRFYWTDRGKSLIGRSDLNGKRSKIITKENISQPRGIAVHPMAKRLFWTDTGINPRIESSSLQGLGRLVIASSDLIWPSGITIDFLTDKLYWCDAKQSVIEMANLDGSKRRRLTQNDVGHPFAVAVFEDYVWFSDWAMPSVMRVNKRTGKDRVRLQGSMLKPSSLVVVHPLAKPGADPCLYQNGGCEHICKKRLGTAWCSCREGFMKASDGKTCLALDGHQLLAGGEVDLKNQVTPLDILSKTRVSEDNITESQHMLVAEIMVSDQDDCAPVGCSMYARCISEGEDATCQCLKGFAGDGKLCSDIDECEMGVPVCPPASSKCINTEGGYVCRCSEGYQGDGIHCLDIDECQLGEHSCGENASCTNTEGGYTCMCAGRLSEPGLICPDSTPPPHLREDDHHYSVRNSDSECPLSHDGYCLHDGVCMYIEALDKYACNCVVGYIGERCQYRDLKWWELRHAGHGQQQKVIVVAVCVVVLVMLLLLSLWGAHYYRTQKLLSKNPKNPYEESSRDVRSRRPADTEDGMSSCPQPWFVVIKEHQDLKNGGQPVAGEDGQAADGSMQPTSWRQEPQLCGMGTEQGCWIPVSSDKGSCPQVMERSFHMPSYGTQTLEGGVEKPHSLLSANPLWQQRALDPPHQMELTQ
modifications: Pro-epidermal growth factor
For B1, the “% Apoptotic cells (Sub G0/G1)” value in assay [1] (50 ng/ml + Radiation (3.5 kGy)) worked out at 10.8%; in assay [1] (setting [5]), 16.4%; in assay [1] (setting [6]), 30.5%. Besides, the results for the “% Decrease in Apoptotic cells (with respect to control)” value in assay [1] (50 ng/ml + Radiation (3.5 kGy)), in assay [1] (setting [5]) and in assay [1] (setting [6]) were 69.5%, 53.5% and 13.7%, respectively. Also, the “% Protection” value worked out at 18% in assay [2] (10 ng/ml + Radiation (3.5 kGy)), 44.4% in assay [2] (50 ng/ml + Radiation (3.5 kGy)), 46.5% in assay [2] (setting [5]) and 8.8% in assay [2] (setting [6]). The “% Decrease in Apoptotic cells (with respect to radiation control)” value in assay [3] (50 ng/ml + Radiation (3.5 kGy)) is recorded as 0%; in assay [3] (setting [5]), 35.9%; in assay [3] (setting [6]), −1.5%. The “% Apoptotic cells” value in assay [3] (50 ng/ml + Radiation (3.5 kGy)) is given as 13.7%; in assay [3] (setting [5]), 8.8%; in assay [3] (setting [6]) it was 13.9%. Also, the “% Increase in MMP (with respect to control)” value in assay [4] (50 ng/ml + Radiation (3.5 kGy)) stood at 41.8%; in assay [4] (setting [5]) it was 33.4%; in assay [4] (setting [6]), 18.8%. Moreover, the MMP is 6.53 in assay [4] (50 ng/ml + Radiation (3.5 kGy)), 6.14 in assay [4] (setting [5]) and 5.47 in assay [4] (setting [6]).
